Experiments:
[1] = biological target: T1, mouse FcγRIII extracellular domain, C-terminally His-tagged (mouse, UniProt P08508 31-215); assay: SPR Biacore T200, KD ratio, template MB476
T1 construct: the whole entry is named; also called mFcγRIII; mFcgRIII
T1 chain: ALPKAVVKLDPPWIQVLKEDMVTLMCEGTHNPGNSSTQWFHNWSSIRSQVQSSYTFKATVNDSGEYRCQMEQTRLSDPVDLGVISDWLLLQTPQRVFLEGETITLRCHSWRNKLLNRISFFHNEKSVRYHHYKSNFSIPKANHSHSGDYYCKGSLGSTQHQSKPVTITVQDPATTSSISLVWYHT
Excerpt: (§1) The antibody H chain variable region used was the variable region H237 (SEQ ID NO: 1) of the H chain VH3-IgG1 of the anti-IL-6 receptor antibody Fv4-IgG1 described in WO2009/125825. The antibody L chain commonly used was the L chain MRAL-k0 (SEQ ID NO: 2) of the anti-IL-6 receptor antibody tocilizumab. H237-MB476/MRAL-k0 and H237-MB515/MRAL-k0 were used as templates to introduce new alterations. These variants were expressed and purified by the method of Reference Example 1 and evaluated for their binding to mFcγRII and mFcγRIII by the method of Reference Example 2 using Biacore T200.
(§2) Each altered antibody was analyzed for its interaction with each Fcγ receptor prepared above using Biacore T100 (GE Healthcare Japan Corp.), Biacore T200 (GE Healthcare Japan Corp.), Biacore A100, or Biacore 4000. The running buffer used was HBS-EP+ (GE Healthcare Japan Corp.). The assay temperature was set to 25° C. The sensor chips used were chips prepared by immobilizing Protein L (ACTIGEN or BioVision) onto Series S Sensor Chip CM5 (GE Healthcare Japan Corp.) or Series S Sensor Chip CM4 (GE Healthcare Japan Corp.) by the amine coupling method.
(§3) In order to calculate the KD value of each altered antibody for FcγR, kinetic analysis was conducted according to the following method: first, the antibody of interest was captured onto any of these chips and allowed to interact with mFcγR diluted with a running buffer. For the obtained sensorgram, the assay results were globally fit into the 1:1 Langmuir binding model using Biacore Evaluation Software to calculate an association rate constant ka (L/mol/s) and a dissociation rate constant kd (1/s). From these values, the dissociation constant KD (mol/L) was calculated.

[2] = biological target: T2, mouse FcγRII extracellular domain, C-terminally His-tagged (mouse, UniProt P08101 30-210); assay: SPR Biacore T200, KD ratio, template MB476
T2 construct: the whole entry is named; also called mFcγRII; mFcgRII
T2 sequence: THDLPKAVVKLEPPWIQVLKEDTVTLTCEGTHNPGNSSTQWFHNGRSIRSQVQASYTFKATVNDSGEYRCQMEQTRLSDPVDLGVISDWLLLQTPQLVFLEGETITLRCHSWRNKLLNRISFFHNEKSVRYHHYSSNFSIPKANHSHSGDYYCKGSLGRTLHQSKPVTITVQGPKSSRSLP
Excerpt: as §1, §2, §3

[3] = biological target: T1, mouse FcγRIII extracellular domain, …; assay: SPR Biacore T200, KD ratio
Excerpt: as §1, §2, §3

[4] = biological target: T2, mouse FcγRII extracellular domain, …; assay: SPR Biacore T200, KD ratio
Excerpt: as §1, §2, §3

B1: H237-MB476/MRAL-k0 (antibody, mouse IgG1, kappa)
heavy: QVQLQESGPGLVKPSETLSLTCAVSGHSISHDHAWSWVRQPPGEGLEWIGFISYSGITNYNPSLQGRVTISRDNSKNTLYLQMNSLRAEDTAVYYCARSLARTTAMDYWGEGTLVTVSSAKTTPPSVYPLAPGSAAQTNSMVTLGCLVKGYFPEPVTVTWNSGSLSSGVHTFPAVLQSDLYTLSSSVTVPSSTWPSETVTCNVAHPASSTKVDKKIVPRDCGCKPCICQPNEVEEVFIFPPKPKDVLTITLTPKVTCVVVDISKDDPEVQFSWFVDDVEVHTAQTQPREEQFNSTFRSVSELPIMHQDWLNGKEFKCRVNSAAFPAPIEKTISKTKGRPKAPQVYTIPPPKEQMAKDKVSLTCMITDFFPEDITVEWQWNGQPAENYKNTQPIMDTDGSYFVYSKLNVQKSNWEAGNTFTCSVLHEGLHNHHTEKSLSHSPGK
light: not shown
notes: Template; copies: 2 + 2
With B1 the “relative mFcγRIII-binding activity (template = 1)” value [1] was 1 fold, the “relative mFcγRII-binding activity (template = 1)” value [2] was 1 fold and the “relative mFcγRIII-binding activity (mIgG1 = 1)” value [3] was 2.6 fold. For the same binder, the “relative mFcγRII-binding activity (mIgG1 = 1)” value [4] was 261 fold.

B2: H237-MB526/MRAL-k0 (antibody, mouse IgG1, kappa)
heavy: QVQLQESGPGLVKPSETLSLTCAVSGHSISHDHAWSWVRQPPGEGLEWIGFISYSGITNYNPSLQGRVTISRDNSKNTLYLQMNSLRAEDTAVYYCARSLARTTAMDYWGEGTLVTVSSAKTTPPSVYPLAPGSAAQTNSMVTLGCLVKGYFPEPVTVTWNSGSLSSGVHTFPAVLQSDLYTLSSSVTVPSSTWPSETVTCNVAHPASSTKVDKKIVPRDCGCKPCICQPNEVEEVFIFPPKPKDVLTITLTPKVTCVVVDISKDDPEVQFSWFVDDVEVHTAQTQPREEQFNLTFRSVSELPIMHQDWLNGKEFKCRVNSAAFPAPIEKTISKTKGRPKAPQVYTIPPPKEQMAKDKVSLTCMITDFFPEDITVEWQWNGQPAENYKNTQPIMDTDGSYFVYSKLNVQKSNWEAGNTFTCSVLHEGLHNHHTEKSLSHSPGK
light: not shown
notes: copies: 2 + 2
For B2, the “relative mFcγRIII-binding activity (template = 1)” value [1] was 3.23 fold, the “relative mFcγRII-binding activity (template = 1)” value [2] was 0.89 fold and the “relative mFcγRIII-binding activity (mIgG1 = 1)” value [3] was 8.5 fold. For the same binder, the “relative mFcγRII-binding activity (mIgG1 = 1)” value [4] was 232 fold.

B3: H237-MB527/MRAL-k0 (antibody, mouse IgG1, kappa)
heavy: QVQLQESGPGLVKPSETLSLTCAVSGHSISHDHAWSWVRQPPGEGLEWIGFISYSGITNYNPSLQGRVTISRDNSKNTLYLQMNSLRAEDTAVYYCARSLARTTAMDYWGEGTLVTVSSAKTTPPSVYPLAPGSAAQTNSMVTLGCLVKGYFPEPVTVTWNSGSLSSGVHTFPAVLQSDLYTLSSSVTVPSSTWPSETVTCNVAHPASSTKVDKKIVPRDCGCKPCICQPNEVEEVFIFPPKPKDVLTITLTPKVTCVVVDISKDDPEVQFSWFVDDVEVHTAQTQPREEQFNLTFRSVSELPIMHQDWLNGKEFKCRVDSAAFPAPIEKTISKTKGRPKAPQVYTIPPPKEQMAKDKVSLTCMITDFFPEDITVEWQWNGQPAENYKNTQPIMDTDGSYFVYSKLNVQKSNWEAGNTFTCSVLHEGLHNHHTEKSLSHSPGK
light: not shown
notes: also called MG527; copies: 2 + 2
In the case of B3, the “relative mFcγRIII-binding activity (template = 1)” value [1] is reported as 2.09 fold, the “relative mFcγRII-binding activity (template = 1)” value [2] is reported as 1.05 fold and the “relative mFcγRIII-binding activity (mIgG1 = 1)” value [3] is reported as 5.5 fold. For the same binder, the “relative mFcγRII-binding activity (mIgG1 = 1)” value [4] was 273 fold.

B4: H237-MB528/MRAL-k0 (antibody, mouse IgG1, kappa)
heavy: QVQLQESGPGLVKPSETLSLTCAVSGHSISHDHAWSWVRQPPGEGLEWIGFISYSGITNYNPSLQGRVTISRDNSKNTLYLQMNSLRAEDTAVYYCARSLARTTAMDYWGEGTLVTVSSAKTTPPSVYPLAPGSAAQTNSMVTLGCLVKGYFPEPVTVTWNSGSLSSGVHTFPAVLQSDLYTLSSSVTVPSSTWPSETVTCNVAHPASSTKVDKKIVPRDCGCKPCICQPNEVEEVFIFPPKPKDVLTITLTPKVTCVVVDISKDDPEVQFSWFVDDVEVHTAQTQPREEQFNLTFRSVSELPIMHQDWLNGKEFKCRVNSDAFPAPIEKTISKTKGRPKAPQVYTIPPPKEQMAKDKVSLTCMITDFFPEDITVEWQWNGQPAENYKNTQPIMDTDGSYFVYSKLNVQKSNWEAGNTFTCSVLHEGLHNHHTEKSLSHSPGK
light: not shown
notes: copies: 2 + 2
B4 was tested, and the “relative mFcγRIII-binding activity (template = 1)” value [1] was 5.52 fold, the “relative mFcγRII-binding activity (template = 1)” value [2] was 1.44 fold and the “relative mFcγRIII-binding activity (mIgG1 = 1)” value [3] was 14.6 fold. For the same binder, the “relative mFcγRII-binding activity (mIgG1 = 1)” value [4] was 375 fold.

B5: H237-MB529/MRAL-k0 (antibody, mouse IgG1, kappa)
heavy: QVQLQESGPGLVKPSETLSLTCAVSGHSISHDHAWSWVRQPPGEGLEWIGFISYSGITNYNPSLQGRVTISRDNSKNTLYLQMNSLRAEDTAVYYCARSLARTTAMDYWGEGTLVTVSSAKTTPPSVYPLAPGSAAQTNSMVTLGCLVKGYFPEPVTVTWNSGSLSSGVHTFPAVLQSDLYTLSSSVTVPSSTWPSETVTCNVAHPASSTKVDKKIVPRDCGCKPCICQPNEVEEVFIFPPKPKDVLTITLTPKVTCVVVDISKDDPEVQFSWFVDDVEVHTAQTQPREEQFNLTFRSVSELPIMHQDWLNGKEFKCRVNSAAFPAPIERTISKTKGRPKAPQVYTIPPPKEQMAKDKVSLTCMITDFFPEDITVEWQWNGQPAENYKNTQPIMDTDGSYFVYSKLNVQKSNWEAGNTFTCSVLHEGLHNHHTEKSLSHSPGK
light: not shown
notes: copies: 2 + 2
With B5 the “relative mFcγRIII-binding activity (template = 1)” value [1] was 2.24 fold, the “relative mFcγRII-binding activity (template = 1)” value [2] was 1.08 fold and the “relative mFcγRIII-binding activity (mIgG1 = 1)” value [3] was 5.9 fold. For the same binder, the “relative mFcγRII-binding activity (mIgG1 = 1)” value [4] was 282 fold.

B6: H237-MB530/MRAL-k0 (antibody, mouse IgG1, kappa)
heavy: QVQLQESGPGLVKPSETLSLTCAVSGHSISHDHAWSWVRQPPGEGLEWIGFISYSGITNYNPSLQGRVTISRDNSKNTLYLQMNSLRAEDTAVYYCARSLARTTAMDYWGEGTLVTVSSAKTTPPSVYPLAPGSAAQTNSMVTLGCLVKGYFPEPVTVTWNSGSLSSGVHTFPAVLQSDLYTLSSSVTVPSSTWPSETVTCNVAHPASSTKVDKKIVPRDCGCKPCICQPNEVEEVFIFPPKPKDVLTITLTPKVTCVVVDISKDDPEVQFSWFVDDVEVHTAQTQPREEQFNSTFRSVSELPIMHQDWLNGKEFKCRVDSDAFPAPIEKTISKTKGRPKAPQVYTIPPPKEQMAKDKVSLTCMITDFFPEDITVEWQWNGQPAENYKNTQPIMDTDGSYFVYSKLNVQKSNWEAGNTFTCSVLHEGLHNHHTEKSLSHSPGK
light: not shown
notes: copies: 2 + 2
With B6 the “relative mFcγRIII-binding activity (template = 1)” value [1] was 3.04 fold, the “relative mFcγRII-binding activity (template = 1)” value [2] was 2.38 fold and the “relative mFcγRIII-binding activity (mIgG1 = 1)” value [3] was 8 fold. The “relative mFcγRII-binding activity (H237-mIgG1/MRAL-k0 = 1)” value [4] was at least 350 fold, the “relative mFcγRII-binding activity (mIgG1 = 1)” value [4] was 623 fold and the “relative mFcγRII-binding activity (template H237-MB476/MRAL-k0 = 1)” value [4] was at least 1.4 fold.

B7: H237-MB531/MRAL-k0 (antibody, mouse IgG1, kappa)
heavy: QVQLQESGPGLVKPSETLSLTCAVSGHSISHDHAWSWVRQPPGEGLEWIGFISYSGITNYNPSLQGRVTISRDNSKNTLYLQMNSLRAEDTAVYYCARSLARTTAMDYWGEGTLVTVSSAKTTPPSVYPLAPGSAAQTNSMVTLGCLVKGYFPEPVTVTWNSGSLSSGVHTFPAVLQSDLYTLSSSVTVPSSTWPSETVTCNVAHPASSTKVDKKIVPRDCGCKPCICQPNEVEEVFIFPPKPKDVLTITLTPKVTCVVVDISKDDPEVQFSWFVDDVEVHTAQTQPREEQFNSTFRSVSELPIMHQDWLNGKEFKCRVDSAAFPAPIERTISKTKGRPKAPQVYTIPPPKEQMAKDKVSLTCMITDFFPEDITVEWQWNGQPAENYKNTQPIMDTDGSYFVYSKLNVQKSNWEAGNTFTCSVLHEGLHNHHTEKSLSHSPGK
light: not shown
notes: copies: 2 + 2
B7 was tested, and the “relative mFcγRIII-binding activity (template = 1)” value [1] was 1.25 fold, the “relative mFcγRII-binding activity (template = 1)” value [2] was 0.88 fold and the “relative mFcγRIII-binding activity (mIgG1 = 1)” value [3] was 3.3 fold. For the same binder, the “relative mFcγRII-binding activity (mIgG1 = 1)” value [4] was 229 fold.

B8: H237-MB532/MRAL-k0 (antibody, mouse IgG1, kappa)
heavy: QVQLQESGPGLVKPSETLSLTCAVSGHSISHDHAWSWVRQPPGEGLEWIGFISYSGITNYNPSLQGRVTISRDNSKNTLYLQMNSLRAEDTAVYYCARSLARTTAMDYWGEGTLVTVSSAKTTPPSVYPLAPGSAAQTNSMVTLGCLVKGYFPEPVTVTWNSGSLSSGVHTFPAVLQSDLYTLSSSVTVPSSTWPSETVTCNVAHPASSTKVDKKIVPRDCGCKPCICQPNEVEEVFIFPPKPKDVLTITLTPKVTCVVVDISKDDPEVQFSWFVDDVEVHTAQTQPREEQFNSTFRSVSELPIMHQDWLNGKEFKCRVNSDAFPAPIERTISKTKGRPKAPQVYTIPPPKEQMAKDKVSLTCMITDFFPEDITVEWQWNGQPAENYKNTQPIMDTDGSYFVYSKLNVQKSNWEAGNTFTCSVLHEGLHNHHTEKSLSHSPGK
light: not shown
notes: copies: 2 + 2
B8 was tested, and the “relative mFcγRIII-binding activity (template = 1)” value [1] was 2.35 fold, the “relative mFcγRII-binding activity (template = 1)” value [2] was 1.26 fold and the “relative mFcγRIII-binding activity (mIgG1 = 1)” value [3] was 6.2 fold. For the same binder, the “relative mFcγRII-binding activity (mIgG1 = 1)” value [4] was 329 fold.

From patent US20150203577A1 (Chugai, published 2015)
